According to the supplement of paper PMC10567573:

B1: NETO1 (parent)
chain: GFSPIIGRFCGQQNPPVIKSSGRF

Variants of: B1
Experiment: protein stability index of a GFP-peptide fusion (GPS, HEK-293T) (PSI 1-6); higher = more stable
Conditions: c terminus: a fixed tail appended
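Further: lentivirally expressed fusions sorted by FACS into six bins by GFP to DsRed ratio, PSI derived from sequencing read proportions per bin multiplied by bin number.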

First: Q13V
Second: Q13I
The protein stability index of the first is higher: 2.36 for the first, 2.17 for the second.

Compared with Q13W, Q13N is higher in protein stability index: 1.61 for the first, 2.31 for the second.

First: Q13G
Second: Q13R
The protein stability index of the first is lower: 1.89 for the first, 2.64 for the second.

First: Q13F
Second: Q13Y
The protein stability index of the first is lower: 1.75 for the first, 2.22 for the second.

Q13K and Q13H are the same in protein stability index: 1.88 for the first, 1.88 for the second.

Going from Q13T to Q13S, the protein stability index falls from 3.12 to 1.63.

Q13L and Q13M are the same in protein stability index: 2.3 for the first, 2.3 for the second.

Compared with Q13P, N14H is lower in protein stability index: 2.31 for the first, 2.18 for the second.

Compared with N14E, N14T is lower in protein stability index: 2.38 for the first, 1.67 for the second.

First: N14K
Second: N14G
The protein stability index of the first is lower: 2.04 for the first, 2.19 for the second.

Compared with N14P, N14A is higher in protein stability index: 2.21 for the first, 2.25 for the second.

Compared with N14F, N14W is lower in protein stability index: 2.26 for the first, 1.87 for the second.

First: N14L
Second: N14Q
The protein stability index of the first is lower: 1.66 for the first, 3.08 for the second.

Going from N14R to N14S, the protein stability index rises from 2.12 to 2.35.

First: N14I
Second: N14Y
The protein stability index of the first is lower: 1.92 for the first, 1.99 for the second.

First: N14V
Second: N14D
The protein stability index of the first is lower: 1.24 for the first, 2.48 for the second.

Compared with N14M, P15R is lower in protein stability index: 1.8 for the first, 1.65 for the second.

First: P15M
Second: P15G
The protein stability index of the first is lower: 1.99 for the first, 2.79 for the second.

Compared with P15K, P15H is higher in protein stability index: 1.99 for the first, 2.01 for the second.

Going from P15D to P15Q, the protein stability index falls from 2.4 to 1.96.

Going from P15C to P15S, the protein stability index falls from 2.19 to 1.93.

Going from P15N to P15W, the protein stability index falls from 2.52 to 2.13.

Going from P15L to P15Y, the protein stability index falls from 2.59 to 2.1.

Going from P15V to P15E, the protein stability index rises from 2.14 to 2.27.

Compared with P15A, P15F is lower in protein stability index: 2.44 for the first, 2.34 for the second.

First: P15T
Second: P15I
The protein stability index of the first is lower: 2.04 for the first, 2.1 for the second.

First: V17E
Second: V17Y
The protein stability index of the first is higher: 2.54 for the first, 2.12 for the second.

First: V17P
Second: V17G
The protein stability index of the first is lower: 2.22 for the first, 2.62 for the second.

First: V17W
Second: V17M
The protein stability index of the first is lower: 2.42 for the first, 2.88 for the second.

Going from V17D to V17A, the protein stability index falls from 2.75 to 2.04.

First: V17T
Second: V17H
The protein stability index of the first is lower: 2.05 for the first, 2.08 for the second.

Going from V17K to V17S, the protein stability index falls from 2.5 to 2.3.

Going from V17N to V17Q, the protein stability index rises from 2.5 to 2.52.

Compared with V17C, V17R is higher in protein stability index: 1.62 for the first, 2.23 for the second.

V17F and V17L are the same in protein stability index: 1.66 for the first, 1.66 for the second.

First: V17I
Second: P16L
The protein stability index of the first is higher: 2.51 for the first, 1.59 for the second.

Compared with P16H, P16E is higher in protein stability index: 2.18 for the first, 2.58 for the second.

P16A and P16K are the same in protein stability index: 2.03 for the first, 2.03 for the second.

Compared with P16I, P16F is lower in protein stability index: 1.86 for the first, 1.85 for the second.

First: P16V
Second: P16D
The protein stability index of the first is higher: 2.26 for the first, 2.1 for the second.

Compared with P16Q, P16S is higher in protein stability index: 1.69 for the first, 2.05 for the second.

Compared with P16R, P16T is lower in protein stability index: 2.32 for the first, 2.23 for the second.

Going from P16Y to P16W, the protein stability index falls from 2.24 to 1.32.

First: P16N
Second: P16M
The protein stability index of the first is lower: 1.73 for the first, 2.16 for the second.

Compared with P16G, P16C is higher in protein stability index: 1.85 for the first, 2.02 for the second.

Going from G22A to S20D, the protein stability index falls from 1.87 to 1.55.

First: S20P
Second: S20Q
The protein stability index of the first is lower: 2.45 for the first, 2.67 for the second.

First: S20V
Second: S20G
The protein stability index of the first is lower: 1.68 for the first, 1.9 for the second.

First: S20M
Second: S20T
The protein stability index of the first is lower: 1.66 for the first, 1.88 for the second.

Going from S20K to S20N, the protein stability index falls from 2.65 to 2.45.

Compared with S20C, S20A is higher in protein stability index: 2.18 for the first, 2.67 for the second.

Compared with S20E, S20R is higher in protein stability index: 2.11 for the first, 2.44 for the second.

Going from S20Y to S20W, the protein stability index rises from 1.43 to 1.99.

First: S20L
Second: S20F
The protein stability index of the first is higher: 2.59 for the first, 2.26 for the second.

Going from S20H to S20I, the protein stability index falls from 2.16 to 1.58.

Going from I18E to I18D, the protein stability index rises from 2.61 to 2.73.

Compared with I18N, I18Q is lower in protein stability index: 3.43 for the first, 2.78 for the second.

Going from I18T to I18S, the protein stability index rises from 2.15 to 2.65.

Compared with I18C, I18Y is lower in protein stability index: 2.65 for the first, 2.43 for the second.

Compared with I18A, I18M is lower in protein stability index: 2.7 for the first, 2.17 for the second.

Going from I18H to I18W, the protein stability index rises from 1.76 to 2.1.

Going from I18L to I18R, the protein stability index rises from 2.17 to 3.13.

Going from I18P to I18F, the protein stability index falls from 2.92 to 1.95.

Compared with I18G, I18V is higher in protein stability index: 2.24 for the first, 3.01 for the second.

Going from I18K to K19M, the protein stability index falls from 2.72 to 2.58.

First: K19D
Second: K19T
The protein stability index of the first is higher: 2.26 for the first, 1.94 for the second.

Compared with K19E, K19R is lower in protein stability index: 2.27 for the first, 1.85 for the second.

Compared with K19P, K19Q is lower in protein stability index: 2.37 for the first, 1.42 for the second.

Compared with K19H, K19C is higher in protein stability index: 1.64 for the first, 1.93 for the second.

First: K19G
Second: K19A
The protein stability index of the first is higher: 3.23 for the first, 2.27 for the second.

Going from K19I to K19N, the protein stability index falls from 2.07 to 1.65.

First: K19S
Second: K19W
The protein stability index of the first is higher: 2.48 for the first, 1.78 for the second.

Compared with K19V, K19F is higher in protein stability index: 1.48 for the first, 1.69 for the second.

Compared with K19L, K19Y is lower in protein stability index: 2.3 for the first, 1.91 for the second.

Compared with S21R, S21Y is higher in protein stability index: 2.26 for the first, 2.36 for the second.

Going from S21H to S21V, the protein stability index rises from 2.06 to 2.15.

Going from S21W to S21G, the protein stability index rises from 1.8 to 2.53.

First: S21M
Second: S21P
The protein stability index of the first is lower: 2.18 for the first, 2.25 for the second.

Compared with S21L, S21E is higher in protein stability index: 1.75 for the first, 2.22 for the second.

Compared with S21D, S21A is higher in protein stability index: 1.82 for the first, 2.88 for the second.

Compared with S21Q, S21C is higher in protein stability index: 2.08 for the first, 2.42 for the second.

Compared with S21K, S21T is higher in protein stability index: 2.22 for the first, 2.36 for the second.

First: S21F
Second: S21I
The protein stability index of the first is higher: 1.68 for the first, 1.57 for the second.

For S21N, the protein stability index was 2.09.
